From PMC8236918, “CYRI-A limits invasive migration through macropinosome formation and integrin uptake regulation” (The Journal of Cell Biology, 2021)

Biological target: untagged full-length RAC1 Q61L (UniProt P63000 1-192, Q61L)
Test: SPR; MBP-tagged CYRI immobilised on Sensor chip CM5; purified untagged RAC1 Q61L titrated at different concentrations; steady-state responses fitted to a 1:1 binding model
Details: both partners purified

B1: MBP-tagged full-length CYRI-B (natural protein)
chain: MGNLLKVLTCTDLEQGPNFFLDFENAQPTESEKEIYNQVNVVLKDAEGILEDLQSYRGAGHEIREAIQHPADEKLQEKAWGAVVPLVGKLKKFYEFSQRLEAALRGLLGALTSTPYSPTQHLEREQALAKQFAEILHFTLRFDELKMTNPAIQNDFSYYRRTLSRMRINNVPAEGENEVNNELANRMSLFYAEATPMLKTLSDATTKFVSENKNLPIENTTDCLSTMASVCRVMLETPEYRSRFTNEETVSFCLRVMVGVIILYDHVHPVGAFAKTSKIDMKGCIKVLKDQPPNSVEGLLNALRYTTKHLNDETTSKQIRSMLQ
notes: CYRI-B (encoded by FAM49B), full length; source: E. coli BL21, purified (MBPTrap HP, size-exclusion chromatography)
B1 was tested, and the Kd was about 38 µM.
